Experimental data from patent US20210277061A1 (UNIVERSITY OF HONG KONG, published 2021).
No end group written: not given here. *: point of attachment. Oxazole(5-CO) = O=C(c1cnco1)*; 2Furoyl = O=C(c1ccco1)*; Cbz = O=C(OCc1ccccc1)*

T1: AF9 YEATS domain, His-AF9 (1-138) (human, UniProt P42568 1-138)
T1 construct: Expressed in E. coli; not shown: His tag
T1 sequence (looked up): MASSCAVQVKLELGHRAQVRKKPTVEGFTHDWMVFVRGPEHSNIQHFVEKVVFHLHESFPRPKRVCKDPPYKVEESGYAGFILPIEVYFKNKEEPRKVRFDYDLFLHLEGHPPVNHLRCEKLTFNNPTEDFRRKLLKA

B1: compound 7 (XL-07) (peptide)
peptide: KQTARK(2Furoyl)STGG-NH2
modifications: N-terminus assumed
SMILES: C[C@H](NC(=O)[C@@H](NC(=O)[C@H](CCC(N)=O)NC(=O)[C@@H](N)CCCCN)[C@@H](C)O)C(=O)N[C@@H](CCCNC(=N)N)C(=O)N[C@@H](CCCCNC(=O)c1ccco1)C(=O)N[C@@H](CO)C(=O)N[C@H](C(=O)NCC(=O)NCC(N)=O)[C@@H](C)O
notes: also called 4.7
B2: compound 13 (XL-13) (peptide)
peptide: KQTARK(Oxazole(5-CO))STGG-NH2
modifications: N-terminus assumed
SMILES: C[C@H](NC(=O)[C@@H](NC(=O)[C@H](CCC(N)=O)NC(=O)[C@@H](N)CCCCN)[C@@H](C)O)C(=O)N[C@@H](CCCNC(=N)N)C(=O)N[C@@H](CCCCNC(=O)c1cnco1)C(=O)N[C@@H](CO)C(=O)N[C@H](C(=O)NCC(=O)NCC(N)=O)[C@@H](C)O
notes: also called 4.13
B3: compound 12 (XL-12) (peptide)
peptide: KQTARKSTGG-NH2
modifications: not fully specified (residue 6); also: Lys6 acylated with group R, structure drawing only
notes: also called 4.12
B4: compound 11 (XL-11) (peptide)
peptide: KQTARKSTGG-NH2
modifications: not fully specified (residue 6); also: Lys6 acylated with group R, structure drawing only
notes: also called 4.11
B5: compound 25 (XL-07i) (peptide)
peptide: H-KQTARK(2Furoyl)-NH2
SMILES: C[C@H](NC(=O)[C@@H](NC(=O)[C@H](CCC(N)=O)NC(=O)[C@@H](N)CCCCN)[C@@H](C)O)C(=O)N[C@@H](CCCNC(=N)N)C(=O)N[C@@H](CCCCNC(=O)c1ccco1)C(N)=O
notes: also called 4.7i
B6: compound 2 (XL-02) (peptide)
peptide: KQTARKSTGG-NH2
modifications: not fully specified (residue 6); also: Lys6 acylated with group R, structure drawing only
notes: also called 4.2
B7: compound 16 (XL-16) (peptide)
peptide: KQTARKSTGG-NH2
modifications: not fully specified (residue 6); also: Lys6 acylated with group R, structure drawing only
notes: also called 4.16
B8: compound 10 (XL-10) (peptide)
peptide: KQTARKSTGG-NH2
modifications: not fully specified (residue 6); also: Lys6 acylated with group R, structure drawing only
notes: also called 4.10
B9: compound 3 (XL-03) (peptide)
peptide: KQTARKSTGG-NH2
modifications: not fully specified (residue 6); also: Lys6 acylated with group R, structure drawing only
notes: also called 4.3
B10: compound 15 (XL-15) (peptide)
peptide: KQTARKSTGG-NH2
modifications: not fully specified (residue 6); also: Lys6 acylated with group R, structure drawing only
notes: also called 4.15
B11: compound 4 (XL-04) (peptide)
peptide: KQTARKSTGG-NH2
modifications: not fully specified (residue 6); also: Lys6 acylated with group R, structure drawing only
notes: also called 4.4
B12: compound 24 (XL-07h) (peptide)
peptide: H-QTARK(2Furoyl)-NH2
SMILES: C[C@H](NC(=O)[C@@H](NC(=O)[C@@H](N)CCC(N)=O)[C@@H](C)O)C(=O)N[C@@H](CCCNC(=N)N)C(=O)N[C@@H](CCCCNC(=O)c1ccco1)C(N)=O
notes: also called 4.7h
B13: compound 47 (competitor A7-L) (peptide)
peptide: Cbz-QTLRK(2Furoyl)-NH2
SMILES: CC(C)C[C@H](NC(=O)[C@@H](NC(=O)[C@H](CCC(N)=O)NC(=O)OCc1ccccc1)[C@@H](C)O)C(=O)N[C@@H](CCCNC(=N)N)C(=O)N[C@@H](CCCCNC(=O)c1ccco1)C(N)=O
notes: Full structure only as drawing
B14: compound 49 (competitor A7-W) (peptide)
peptide: Cbz-QTWRK(2Furoyl)-NH2
SMILES: C[C@@H](O)[C@H](NC(=O)[C@H](CCC(N)=O)NC(=O)OCc1ccccc1)C(=O)N[C@@H](Cc1c[nH]c2ccccc12)C(=O)N[C@@H](CCCNC(=N)N)C(=O)N[C@@H](CCCCNC(=O)c1ccco1)C(N)=O
notes: as for B13
B15: compound 55 (competitor T6-S) (peptide)
peptide: Cbz-QSARK(2Furoyl)-NH2
SMILES: C[C@H](NC(=O)[C@H](CO)NC(=O)[C@H](CCC(N)=O)NC(=O)OCc1ccccc1)C(=O)N[C@@H](CCCNC(=N)N)C(=O)N[C@@H](CCCCNC(=O)c1ccco1)C(N)=O
notes: as for B13
B16: compound 53 (competitor T6-A) (peptide)
peptide: Cbz-QAARK(2Furoyl)-NH2
SMILES: C[C@H](NC(=O)[C@H](C)NC(=O)[C@H](CCC(N)=O)NC(=O)OCc1ccccc1)C(=O)N[C@@H](CCCNC(=N)N)C(=O)N[C@@H](CCCCNC(=O)c1ccco1)C(N)=O
notes: as for B13
B17: peptide control (competitor control) (peptide)
peptide: Cbz-QTARK(2Furoyl)-NH2
SMILES: C[C@H](NC(=O)[C@@H](NC(=O)[C@H](CCC(N)=O)NC(=O)OCc1ccccc1)[C@@H](C)O)C(=O)N[C@@H](CCCNC(=N)N)C(=O)N[C@@H](CCCCNC(=O)c1ccco1)C(N)=O

These binders were tested against T1, AF9 YEATS domain, His-AF9 (1-138) (assay: ITC).
In the case of B1, the Kd is reported as 3300 nM, the “N (sites)” value is reported as 0.91 sites and the ΔH is reported as -12.2 kcal/mol. For the same binder, the ΔS was -15.9 cal/mol/deg.
B2 was tested, and the Kd was 1000 nM, the “N (sites)” value was 1.04 sites and the ΔH was -12.3 kcal/mol. It also gave a ΔS of -13.8 cal/mol/deg.

What follows are binders tested against T1, AF9 YEATS domain, His-AF9 (1-138) (assay: photo-cross-linking competition vs photoaffinity probe, in-gel fluorescence).
B3 gave an IC50 of 10400 nM.
B1 was tested, and the IC50 was 1300 nM.
With QTARK(2Furoyl)-NH2 (not fully specified (N-terminus), Full structure only as drawing) [compound 74 (competitor Cbz-4)] the IC50 was 230 nM.
B4 was tested, and the IC50 was 15700 nM.
In the case of KQTARK(2‑pyrimidinecarbonyl)STGG-NH2 (also called 4.6) [compound 6 (XL-06)], the IC50 is reported as 3700 nM.
B5 showed an IC50 of 460 nM.
KQTARK(Arg)STGG-NH2 (also: Lys6 acylated with group R, shown only as a drawing, also called 4.9) [compound 9 (XL-09)] was tested, and the IC50 was 6500 nM.
In the case of B2, the IC50 is reported as 740 nM.
Binder KQTARK(4‑oxazolecarbonyl)STGG-NH2 (also called 4.14) [compound 14 (XL-14)] has an IC50 of 3000 nM.
With B6 the IC50 was 29800 nM.
Work on B7 yielded an IC50 of 12600 nM.
Work on B8 yielded an IC50 of 10600 nM.
Binder KQTARK(cyclopentanecarbonyl)STGG-NH2 (also called 4.17) [compound 86 (negative control), XL-17] has an IC50 of 34500 nM.
B9 was tested, and the IC50 was 22100 nM.
B10 showed an IC50 of 24500 nM.
Work on B11 yielded an IC50 of 22200 nM.
For KQTARK(3‑furancarbonyl)STGG-NH2 (also called 4.8) [compound 8 (XL-08)], the IC50 was 1700 nM.
In the case of B12, the IC50 is reported as 4500 nM.
B13 gave an IC50 of 340 nM.
For B14, the IC50 was 320 nM.
B15 gave an IC50 of 780 nM.
B16 showed an IC50 of 720 nM.
In the case of KQTARK(isonicotinoyl)STGG-NH2 (also called 4.5) [compound 5 (XL-05)], the IC50 is reported as 2100 nM.

Biological target: T1, AF9 YEATS domain, His-AF9 (1-138)
Experiment: as above
Remark: another data set of the same source
QTARK(2Furoyl)-NH2 (not fully specified (N-terminus), Full structure only as drawing) [compound 74 (competitor Cbz-4)] gave an IC50 of 226 nM.
With B17 the IC50 was 189 nM.
Work on B13 yielded an IC50 of 338 nM.
In the case of B14, the IC50 is reported as 315 nM.
Binder B15 has an IC50 of 778 nM.
B16 was tested, and the IC50 was 715 nM.

Biological target: T1, AF9 YEATS domain, His-AF9 (1-138)
Experiment: ITC
Remark: another data set of the same source
With B1 the “fold binding enhancement over the native crotonyl group (H3K9cr)” value was 4.5 fold.
In the case of B2, the “fold binding enhancement over the native crotonyl group (H3K9cr)” value is reported as 14.8 fold.
